In publication PMC8906423:
Where “and” joins values, the source holds several entries; their conditions need not be identical. Equal entries are not always repeated.

What was measured:
[1] = molecular target: Δ123A7-S chimera (H77c E2 Δ123 with 7 Cys-to-Ala mutations fused to the N terminus of DHBV S antigen) (hepatitis C virus genotype 1a, H77c | duck hepatitis B virus) (UniProt P27958); test: co-sedimentation + other: quantitative Western blot; gradient-purified VLP preparations; amount and proportion of E2 and S within VLPs quantified with Image Studio software; 4 consecutive preps
[2] = molecular target: RBDA7-S chimera (H77c E2 RBD with 7 Cys-to-Ala mutations fused to the N terminus of DHBV S antigen) (hepatitis C virus genotype 1a, H77c | duck hepatitis B virus) (UniProt P27958); test: as above

For “duck hepatitis B virus (DHBV) small surface antigen (S) (natural protein)”, the stoichiometry N (mol S per mol Δ123A7-S) [1] was 2 and 4 and the stoichiometry N (mol S per mol RBDA7-S) [2] was 4 and 10 and 7.
